In patent US20160289338A1 (OXFORD BIOTHERAPEUTICS, published 2016):

What was measured:
[1] = target: T1, human Matriptase (cell-surface) (human, UniProt Q9Y5Y6 1-855); assay: flow cytometry on HT-29 cells, GMFI Facsarray; the legend box prints no unit, nmol/L is the unit of the concentration axis
T1 construct: Endogenous Matriptase on human tumour cell lines (HT-29, H69, SNU-1, A431, SW620, SKOV-3, MCF-7, A549); The protein on cells may be proteolytically processed to the stem; also called cell-surface human Matriptase; Matriptase full-length protein
T1 sequence: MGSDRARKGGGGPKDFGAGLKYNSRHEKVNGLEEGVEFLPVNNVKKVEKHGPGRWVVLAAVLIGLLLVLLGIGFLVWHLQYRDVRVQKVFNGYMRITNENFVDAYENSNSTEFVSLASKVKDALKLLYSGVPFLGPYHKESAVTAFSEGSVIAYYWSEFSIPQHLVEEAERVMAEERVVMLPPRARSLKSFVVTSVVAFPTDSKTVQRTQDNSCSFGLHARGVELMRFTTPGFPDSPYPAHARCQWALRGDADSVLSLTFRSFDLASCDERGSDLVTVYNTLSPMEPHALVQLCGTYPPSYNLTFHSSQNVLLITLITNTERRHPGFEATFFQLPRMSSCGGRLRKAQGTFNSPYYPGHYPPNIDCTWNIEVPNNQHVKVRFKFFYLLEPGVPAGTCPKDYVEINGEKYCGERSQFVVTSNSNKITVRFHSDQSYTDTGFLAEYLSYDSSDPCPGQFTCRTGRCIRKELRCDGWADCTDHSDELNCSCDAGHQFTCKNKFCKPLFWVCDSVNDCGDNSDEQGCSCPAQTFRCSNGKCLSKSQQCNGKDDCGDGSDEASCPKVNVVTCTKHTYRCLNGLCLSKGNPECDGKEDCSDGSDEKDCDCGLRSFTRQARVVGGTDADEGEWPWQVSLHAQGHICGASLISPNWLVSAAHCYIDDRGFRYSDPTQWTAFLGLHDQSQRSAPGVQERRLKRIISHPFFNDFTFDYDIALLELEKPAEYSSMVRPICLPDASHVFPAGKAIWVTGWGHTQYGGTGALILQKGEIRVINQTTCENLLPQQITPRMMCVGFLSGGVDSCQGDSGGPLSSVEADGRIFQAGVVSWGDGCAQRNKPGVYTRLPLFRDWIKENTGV

[2] = target: T1, human Matriptase (cell-surface); assay: flow cytometry on H69 cells, GMFI Facsarray; the legend box prints no unit, nmol/L is the unit of the concentration axis
[3] = target: T1, human Matriptase (cell-surface); assay: cell-based or functional assay
[4] = target: T1, human Matriptase (cell-surface); assay: flow cytometry on SNU-1 cells, PE GMFI
Protocol: The specificity of antibodies against the Matriptase selected in Example 1 was tested by flow cytometry. To test the ability of the antibodies to bind to the cell surface Matriptase protein, the antibodies were incubated with the Matriptase-expressing cells. Cells were washed in FACS buffer (DPBS, 2% FBS), centrifuged and resuspended in 100 μl of the diluted primary Matriptase antibody (also diluted in FACS buffer). The antibody-cell line complex was incubated on ice for 60 min and then washed twice with FACS buffer as described above. The cell-antibody pellet was resuspended in 100 μl of the diluted secondary antibody (also diluted in FACS buffer) and incubated on ice for 60 min on ice. The pellet was washed as before and resuspended in 200 μl FACS buffer. The samples were loaded onto the BD FACScanto II flow sytometer and the data analyzed using the BD FACSdiva software.

B1: Matriptase_A1 (antibody, V domains shown)
VH: EVQLLESGGGLVQPGGSLRLSCAASGFTFRNYDMSWVRQAPGKGLEWVSSISYSGGSTYYADSVKGRFTISRDNSKNTLSLQMNSLRAEDTAVYYCAKRGATPFDYWGQGSLVTVSS
VL: not shown
notes: Fully human monoclonal IgG from a hybridoma of an HCo12 HuMAb Mouse; supernatants were screened for human gamma, kappa antibodies; a human IgG1 isotype control was used in the ADCC assay
EC50 [1]: 0.222 nM | EC50 [2]: 3.45 nM | EC50, MabZAP internalization assay, H69 cells [3]: 0.074 nM | EC50, MabZAP internalization assay, HT-29 cells [3]: 0.183 nM | EC50 (read off the curve) [4]: ~0.5 nM
